{"source": "patent US20220040319A1", "about": "(Regeneron, published 2022); for % Inhibition, HEK293/SRE-Luc Blocking Activity (HGF, 1 h mAb pre-bind): test concentration or dose not given here", "key": {"human MET on cells [1]": {"molecular_target": "T1, human MET on cells (human, UniProt P08581 25-1390)", "T1 sequence (P08581 25-1390 limits assumed, form in doubt)": "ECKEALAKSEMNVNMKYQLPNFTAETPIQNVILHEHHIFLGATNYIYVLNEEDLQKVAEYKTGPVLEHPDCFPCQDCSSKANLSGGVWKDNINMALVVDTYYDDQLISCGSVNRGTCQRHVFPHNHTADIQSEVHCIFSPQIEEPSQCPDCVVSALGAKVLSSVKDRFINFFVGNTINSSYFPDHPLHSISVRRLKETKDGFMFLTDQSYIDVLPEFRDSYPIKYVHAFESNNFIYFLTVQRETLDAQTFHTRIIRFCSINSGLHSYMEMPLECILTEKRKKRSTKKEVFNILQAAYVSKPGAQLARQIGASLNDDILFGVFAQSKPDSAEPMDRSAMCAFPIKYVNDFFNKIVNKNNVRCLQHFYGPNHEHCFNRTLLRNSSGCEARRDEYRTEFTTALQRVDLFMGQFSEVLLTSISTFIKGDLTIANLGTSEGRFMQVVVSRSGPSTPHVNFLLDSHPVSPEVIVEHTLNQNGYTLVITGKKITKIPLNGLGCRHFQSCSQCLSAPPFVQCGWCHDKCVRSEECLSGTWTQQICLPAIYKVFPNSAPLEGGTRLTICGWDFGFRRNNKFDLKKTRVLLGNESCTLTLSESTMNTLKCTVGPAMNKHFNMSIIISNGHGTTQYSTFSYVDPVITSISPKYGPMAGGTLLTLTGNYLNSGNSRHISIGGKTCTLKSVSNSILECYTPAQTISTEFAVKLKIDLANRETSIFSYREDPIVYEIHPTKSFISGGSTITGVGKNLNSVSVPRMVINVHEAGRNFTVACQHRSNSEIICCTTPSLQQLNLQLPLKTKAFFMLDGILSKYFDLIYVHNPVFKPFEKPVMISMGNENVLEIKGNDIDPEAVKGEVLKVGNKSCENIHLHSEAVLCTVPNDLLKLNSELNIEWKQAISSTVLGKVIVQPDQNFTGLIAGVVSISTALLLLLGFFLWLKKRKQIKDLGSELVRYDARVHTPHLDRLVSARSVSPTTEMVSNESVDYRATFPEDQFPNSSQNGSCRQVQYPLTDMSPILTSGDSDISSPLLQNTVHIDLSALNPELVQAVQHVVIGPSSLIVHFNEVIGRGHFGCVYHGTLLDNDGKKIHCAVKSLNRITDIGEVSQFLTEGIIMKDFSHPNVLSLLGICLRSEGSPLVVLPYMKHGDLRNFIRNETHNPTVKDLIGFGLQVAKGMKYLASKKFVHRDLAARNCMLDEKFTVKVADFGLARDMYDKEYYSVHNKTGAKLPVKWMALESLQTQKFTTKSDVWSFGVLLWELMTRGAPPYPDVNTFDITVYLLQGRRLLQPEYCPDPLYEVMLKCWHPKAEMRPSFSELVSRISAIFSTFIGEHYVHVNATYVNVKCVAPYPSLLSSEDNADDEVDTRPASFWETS", "assay": "cell-based or functional assay"}, "human MET on cells [2]": {"molecular_target": "T1, human MET on cells", "assay": "cell-based or functional assay", "remark": "listed apart in the source"}, "human MET on cells [3]": {"molecular_target": "T1, human MET on cells", "assay": "cell-based or functional assay", "remark": "listed apart in the source"}, "[4]": {"molecular_target": "T2, hMet.mmh (human MET extracellular domain with C-terminal myc-myc-hexahistidine tag) (human, UniProt P08581 309-914; P08581 27-307)", "T2 construct": "soluble monomeric MET; also called monomeric human MET", "T2 sequence (P08581 other isoform, or with tags, fused parts or gaps limits assumed, chain 1 of 2)": "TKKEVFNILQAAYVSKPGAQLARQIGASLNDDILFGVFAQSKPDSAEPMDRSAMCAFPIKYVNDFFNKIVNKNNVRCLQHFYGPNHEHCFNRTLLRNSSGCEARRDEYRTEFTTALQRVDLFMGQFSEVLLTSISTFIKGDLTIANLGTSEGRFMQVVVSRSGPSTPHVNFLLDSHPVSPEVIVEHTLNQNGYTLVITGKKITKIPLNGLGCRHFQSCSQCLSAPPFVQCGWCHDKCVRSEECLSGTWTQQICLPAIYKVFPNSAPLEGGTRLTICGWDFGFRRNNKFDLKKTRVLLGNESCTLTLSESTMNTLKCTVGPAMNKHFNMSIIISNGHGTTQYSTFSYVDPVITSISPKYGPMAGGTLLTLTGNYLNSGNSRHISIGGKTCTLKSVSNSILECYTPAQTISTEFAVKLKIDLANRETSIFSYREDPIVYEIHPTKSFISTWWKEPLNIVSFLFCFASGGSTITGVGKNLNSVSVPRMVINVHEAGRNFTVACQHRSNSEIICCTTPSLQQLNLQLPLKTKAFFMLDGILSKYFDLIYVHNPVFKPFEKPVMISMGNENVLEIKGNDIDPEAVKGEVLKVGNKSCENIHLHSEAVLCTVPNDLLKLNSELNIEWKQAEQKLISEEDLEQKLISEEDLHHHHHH", "T2 sequence (P08581 27-307 limits assumed, chain 2 of 2)": "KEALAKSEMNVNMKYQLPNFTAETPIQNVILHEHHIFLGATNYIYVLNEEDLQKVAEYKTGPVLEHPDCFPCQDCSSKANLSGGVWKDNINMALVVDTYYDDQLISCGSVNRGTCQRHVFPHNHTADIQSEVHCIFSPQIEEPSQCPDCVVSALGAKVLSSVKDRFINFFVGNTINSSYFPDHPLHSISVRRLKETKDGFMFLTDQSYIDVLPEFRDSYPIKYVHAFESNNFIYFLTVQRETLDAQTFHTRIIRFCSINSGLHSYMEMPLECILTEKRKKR", "assay": "SPR 37C, antibody captured", "method": "Kinetic association (kₐ) and dissociation (kd) rate constants were determined as described in Example 3."}}}
{"binder": "H4H13331P2 (antibody, human IgG4, V domains shown) VH: QVQLQESGPGLVKSSETLSLTCTVSGGSIRNFYWSWLRQPPGKGLEWIGHINYNGGTDYNPSLKSRVTISVDTSKNQFSLNLNSVTAADTAVYYCARQRFYGMDVWGPGTTVTVSS VL: not shown", "values": [{"measurement": "% Growth Inhibition, SNU5 cells", "setting": "human MET on cells [1]", "value": 5, "unit": "%"}, {"measurement": "% Inhibition, HEK293/SRE-Luc Blocking Activity (HGF, 1 h mAb pre-bind)", "setting": "human MET on cells [2]", "value": 75, "unit": "%"}, {"measurement": "EC50, Ligand (HGF)-Independent HEK293/SRE-Luc Activation", "setting": "human MET on cells [2]", "value": 0.0023, "unit": "nM"}, {"measurement": "Fold Response, Ligand (HGF)-Independent HEK293/SRE-Luc Activation", "setting": "human MET on cells [2]", "value": 7.1, "unit": "fold"}, {"measurement": "IC50, HEK293/SRE-Luc Blocking Activity (HGF, 1 h mAb pre-bind)", "setting": "human MET on cells [2]", "value": "< 0.01", "unit": "nM"}]}
{"binder": "H4H14638D (bispecific antibody, human IgG4, V domains shown) VH 1: QVQLVESGGGVVQPGRSLRLSCAASGFTFSNFGMHWVRQAPGKGLEWVAGIWFDGSNKNYIDSVKGRFTISRDNSKNTLYLQMNSLRAEDTAVYYCAREGYDSGTDYIPYDIFDIWGQGTMVTVSS VH 2: EVQLVESGGGLVQPGGSLRLSCAASGFIVTTNYMTWLRQAPGKGLEWVSLIYSSGHTYYADSVKGRFTISRHNSKNTLYLQMDSLRAEDTAVYYCASAFAADVFDIWGQGTMVTVSS VL: not shown", "values": [{"measurement": "Relative MET Level, SNU5 cells, 18 hrs", "setting": "human MET on cells [3]", "value": "0.35 relative to control (hFc)"}, {"measurement": "% Inhibition, HEK293/SRE-Luc Blocking Activity (HGF, 1 h mAb pre-bind)", "setting": "human MET on cells [2]", "value": 79, "unit": "%"}, {"measurement": "EC50, Ligand (HGF)-Independent HEK293/SRE-Luc Activation", "setting": "human MET on cells [2]", "value": 5.9, "unit": "nM"}, {"measurement": "Fold Response, Ligand (HGF)-Independent HEK293/SRE-Luc Activation", "setting": "human MET on cells [2]", "value": 2.6, "unit": "fold"}, {"measurement": "IC50, HEK293/SRE-Luc Blocking Activity (HGF, 1 h mAb pre-bind)", "setting": "human MET on cells [2]", "value": 1.1, "unit": "nM"}]}
{"binder": "H4H14641D (bispecific antibody, human IgG4, V domains shown, MET x MET bispecific, expressed as human IgG4) VH 1: QVQLVESGGGVVQPGRSLRLSCSASGFSFSHFGMHWVRQVPGGGLEWVTSIWFDGSNRYYADSLKGRFTISRDNSKNTLYLEMNSLRAEDTAVYYCVREGILGTTNPYDVFDVWGQGTMVTVSS VH 2: EVQLVESGGGLVQPGGSLRLSCAASGFIVTTNYMTWLRQAPGKGLEWVSLIYSSGHTYYADSVKGRFTISRHNSKNTLYLQMDSLRAEDTAVYYCASAFAADVFDIWGQGTMVTVSS VL: not shown", "values": [{"measurement": "T½", "setting": "[4]", "value": 35.3, "unit": "min"}, {"measurement": "koff", "setting": "[4]", "value": 0.000327, "unit": "s⁻¹"}]}
{"binder": "H4H14637D (bispecific antibody, human IgG4, V domains shown, MET x MET bispecific, expressed as human IgG4; also called bispecific antibody No. 90) VH 1: QVQLVESGGGVVQPGTSLRLSCVASGFTFRNFGMHWVRQAPGKGLEWVANIWFDGSNENYVESIQGRFTISRDNSKNTLNLQMNSLRAEDSAVYYCVREGILGTTNPYDAFDVWGQGTMVTVSS VH 2: EVQLVESGGGLVQPGGSLRLSCAASGFIVTTNYMTWLRQAPGKGLEWVSLIYSSGHTYYADSVKGRFTISRHNSKNTLYLQMDSLRAEDTAVYYCASAFAADVFDIWGQGTMVTVSS VL: not shown", "values": [{"measurement": "T½", "setting": "[4]", "value": 35.4, "unit": "min"}, {"measurement": "koff", "setting": "[4]", "value": 0.000326, "unit": "s⁻¹"}]}
{"binder": "H4H14641D (bispecific antibody, human IgG4, V domains shown) VH 1: QVQLVESGGGVVQPGRSLRLSCSASGFSFSHFGMHWVRQVPGGGLEWVTSIWFDGSNRYYADSLKGRFTISRDNSKNTLYLEMNSLRAEDTAVYYCVREGILGTTNPYDVFDVWGQGTMVTVSS VH 2: EVQLVESGGGLVQPGGSLRLSCAASGFIVTTNYMTWLRQAPGKGLEWVSLIYSSGHTYYADSVKGRFTISRHNSKNTLYLQMDSLRAEDTAVYYCASAFAADVFDIWGQGTMVTVSS VL: not shown", "values": [{"measurement": "Relative MET Level, SNU5 cells, 18 hrs", "setting": "human MET on cells [3]", "value": "0.31 relative to control (hFc)"}, {"measurement": "% Inhibition, HEK293/SRE-Luc Blocking Activity (HGF, 1 h mAb pre-bind)", "setting": "human MET on cells [2]", "value": 75, "unit": "%"}, {"measurement": "EC50, Ligand (HGF)-Independent HEK293/SRE-Luc Activation", "setting": "human MET on cells [2]", "value": 84, "unit": "nM"}, {"measurement": "Fold Response, Ligand (HGF)-Independent HEK293/SRE-Luc Activation", "setting": "human MET on cells [2]", "value": 4.4, "unit": "fold"}, {"measurement": "IC50, HEK293/SRE-Luc Blocking Activity (HGF, 1 h mAb pre-bind)", "setting": "human MET on cells [2]", "value": 2.7, "unit": "nM"}]}
{"binder": "H4H16449D (bispecific antibody, human IgG4, V domains shown, MET x MET bispecific, expressed as human IgG4) VH 1: QVQLVESGGGVVQPGRSLRLSCAASGFTFSSFAMHWVRQAPGKGLEWVAVIWYDGSNDYYAASVKGRFTISRDNSKNTLYLEMNRLRAEDTAVYHCARDNWNYWGGMDVWGQGTTVTVSS VH 2: EVQLVESGGGLVQPGGSLRLSCAASGFIVTTNYMTWLRQAPGKGLEWVSLIYSSGHTYYADSVKGRFTISRHNSKNTLYLQMDSLRAEDTAVYYCASAFAADVFDIWGQGTMVTVSS VL: not shown", "values": [{"measurement": "T½", "setting": "[4]", "value": 39.3, "unit": "min"}, {"measurement": "koff", "setting": "[4]", "value": 0.000294, "unit": "s⁻¹"}]}
{"binder": "H4H14638D (bispecific antibody, human IgG4, V domains shown, MET x MET bispecific, expressed as human IgG4) VH 1: QVQLVESGGGVVQPGRSLRLSCAASGFTFSNFGMHWVRQAPGKGLEWVAGIWFDGSNKNYIDSVKGRFTISRDNSKNTLYLQMNSLRAEDTAVYYCAREGYDSGTDYIPYDIFDIWGQGTMVTVSS VH 2: EVQLVESGGGLVQPGGSLRLSCAASGFIVTTNYMTWLRQAPGKGLEWVSLIYSSGHTYYADSVKGRFTISRHNSKNTLYLQMDSLRAEDTAVYYCASAFAADVFDIWGQGTMVTVSS VL: not shown", "values": [{"measurement": "T½", "setting": "[4]", "value": 70.2, "unit": "min"}, {"measurement": "koff", "setting": "[4]", "value": 0.000165, "unit": "s⁻¹"}]}
{"binder": "H4H14634D (bispecific antibody, human IgG4, V domains shown, MET x MET bispecific, expressed as human IgG4; also called bispecific antibody No. 10) VH 1: QVQLQESGPGLVKPSETLSLTCTVSGDSISSYYWTWIRQPPGKGLEWIGYIFYRGGTTYNPSLKSRVTISVDTSKNQFSLKLRSVTAADTAVYYCARGDDLLVVTSVYWYIDLWGRGTLVTVSS VH 2: EVQLVESGGGLVQPGGSLRLSCAASGFIVTTNYMTWLRQAPGKGLEWVSLIYSSGHTYYADSVKGRFTISRHNSKNTLYLQMDSLRAEDTAVYYCASAFAADVFDIWGQGTMVTVSS VL: not shown", "values": [{"measurement": "T½", "setting": "[4]", "value": "≥ 1160", "unit": "min"}, {"measurement": "koff", "setting": "[4]", "value": "≤ 1e-05", "unit": "s⁻¹"}]}
